What was measured:
[1] = target: T1, human TIMP-1 (human, UniProt P01033 24-207); experiment: SPR (BIAcore), monovalent Fab
T1 construct: Purified protein, coupled to the BIAcore chip or in solution in the protease assay
Description: (§1) For affinity determination, monomeric fractions of affinity and SEC purified Fab fragments or purified IgG1 molecules were used. All experiments were conducted in HBS buffer at a flow rate of 20 μl/min at 25° C. on a BIAcore™ instrument. Antigens in 100 mM sodium acetate pH 5.0 were coupled to a CM 5 sensor chip using standard EDC-NHS coupling chemistry. […] All sensograms were fitted globally using BIA evaluation software. For monovalent Fab fragments a monovalent fit (Langmuir binding) and for IgGs a bivalent fit was applied.

[2] = target: T1, human TIMP-1; experiment: SPR (BIAcore), monovalent Fab; against parental clone MS-BW-3 (best Fab and parent named in paragraph 170)
[3] = target: T1, human TIMP-1; experiment: SPR (BIAcore), TIMP-1 coupled to chip, monovalent Fab
Description: as §1

[4] = target: T1, human TIMP-1; experiment: SPR (BIAcore); against the parental Fab (MS-BW-44-6, 0.6 nM; implied)
Description: as §1

[5] = target: T1, human TIMP-1; experiment: cell-based or functional assay
[6] = target: T1, human TIMP-1; experiment: cell-based or functional assay; remark: listed apart in the source
[7] = target: T1, human TIMP-1; experiment: SPR (BIAcore); against the parental Fab (MS-BW-44-2, 0.5 nM; implied)
Description: as §1

[8] = target: T2, rat TIMP-1 (rat, UniProt P30120 24-217); experiment: SPR (BIAcore), rat TIMP-1 on chip (500 RU), IgG1, bivalent fit (avidity)
Description: as §1
Anti-rat TIMP-1 clone MS-BW-14 was chosen for the first in vivo study, and IgG₁ protein was produced by transient expression. Anti-human TIMP-1 clone MS-BW-3 was selected as a negative control IgG₁ and was also produced by transient expression. Purified IgG₁ proteins MS-BW-14 and MS-BW-3 were subjected to quality control in BIAcore™ and rat TIMP-1/rat MMP-13 assays. […] This increase in affinity for the IgG₁ is due to the avidity effects caused by binding of bivalent IgG₁ to immobilized rat TIMP-1 protein on the BIAcore™ chip.

[9] = target: T2, rat TIMP-1; experiment: cell-based or functional assay

T2 sequence (P30120 24-217 limits assumed): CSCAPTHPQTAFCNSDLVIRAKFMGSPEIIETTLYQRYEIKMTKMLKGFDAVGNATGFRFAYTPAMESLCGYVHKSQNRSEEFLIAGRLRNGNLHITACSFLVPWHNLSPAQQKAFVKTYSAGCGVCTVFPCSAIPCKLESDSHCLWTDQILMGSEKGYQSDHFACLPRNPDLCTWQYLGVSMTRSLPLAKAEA

Binder | Kd [1] | improvement factor of monovalent affinity [2] | Kd [3] | improvement factor (affinity) [4] | IC50 in human protease assay (modified, decreased TIMP-1 and MMP-1) [5] | improvement factor of activity in human TIMP-1/MMP-1 assay (against parental clone MS-BW-3) [6] | improvement factor (affinity) [7] | improvement factor with respect to the IC50 in human TIMP-1/MMP-1 assay (against the Fab of the previous maturation cycle, MS-BW-44-2) [6] | Kd [8] | IC50 (50 % reversal of the inhibition of rat MMP-13 by rat TIMP-1, fluorogenic peptide substrate assay) [9]
MS-BW-44-6-1 (Fab, V domains shown, Fab from LCDR3 optimization of MS-BW-44-6) VH: QVQLVESGGGLVQPGGSLRLSCAASGFTFNSYAMSWVRQAPGKGLEWVSVISGNGSNTYYADSVKGRFTISRDNSKNTLYLQMNSLRAEDTAVYYCARFLDIWGQGTLVTVSS VL: DIALTQPASVSGSPGQSITISCTGTSSDVGGYNYVSWYQQHPGKAPKLMIYDVSNRPSGVSNRFSGSKSGNTASLTISGLQAEDEADYYCQSYDFIRFMVFGGGTKLTVLG | 0.15 nM | 87 fold | 0.2 nM | 4 fold | 0.2 nM | 55 fold | – | – | – | –
MS-BW-44-2-4 (Fab, V domains shown, Fab from HCDR3 optimization of MS-BW-44-2) VH: QVQLVESGGGLVQPGGSLRLSCAASGFTFSSYAMSWVRQAPGKGLEWVSGISGNGVLIFYADSVKGRFTISRDNSKNTLYLQMNSLRAEDTAVYYCARGLMDYWGQGTLVTVSS VL: DIALTQPASVSGSPGQSITISCTGTSSDVGGYNYVSWYQQHPGKAPKLMIYDVSNRPSGVSNRFSGSKSGNTASLTISGLQAEDEADYYCQSYDFVRFMVFGGGTKLTVLG | – | – | 0.2 nM | – | 0.2 nM | – | 2.5 fold | 2 fold | – | –
MS-BW-14 IgG1 (antibody, V domains shown, Variable regions of Fab MS-BW-14 cloned into human IgG1 vectors; also called IgG1 protein MS-BW-14; copies: 2 + 2) VH: QVQLVQSGAEVKKPGSSVKVSCKASGGTFSSYAISWVRQAPGQGLEWMGGIIPIFGTANYAQKFQGRVTITADESTSTAYMELSSLRSEDTAVYYCARWSDQSYHYYWHPYFDVWGQGTLVTVSS VL: DIVLTQPPSVSGAPGQRVTISCSGSSSNIGSNYVSWYQQLPGTAPKLLIYDNNQRPSGVPDRFSGSKSGTSASLAITGLQSEDEADYYCQSWDLEPYVFGGGTKLTVL | – | – | – | – | – | – | – | – | 0.2 nM | ~7 nM

From patent US20140086935A1 (Bayer, published 2014)
